Measured values reported in the supplement of paper PMC9170038.

Test system: MS2 coat protein
Test: apparent KD of MS2 coat protein; designed switch direction (-1 OFF switch, 1 ON switch): -1; higher = weaker reporter binding
Outline: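 Three titration conditions were used: no input, 200 uM small-molecule ligand, and an oligonucleotide input. In each, SNAP-549-labelled MS2 coat protein was raised from 0.7 or 1.5 nM, doubling, to 3 µM over designed RNA switches transcribed on Illumina chips by stalled E. coli RNA polymerase. Curve fits of normalised cluster fluorescence gave values whose per-design median over clusters is the apparent KD.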

[1] = input ligand: microRNA oligo, concentration not stated
[2] = Eterna round: R95, input ligand: microRNA oligo, concentration not stated
[3] = Eterna round: R95, input ligand: FMN 200 uM
[4] = Eterna round: R95, input ligand: none

Sequence	apparent KD of MS2 coat protein (input ligand: FMN 200 uM) [nM]	apparent KD of MS2 coat protein (input ligand: none) [nM]	apparent KD of MS2 coat protein [1] [nM]	apparent KD of MS2 coat protein [2] [nM]	apparent KD of MS2 coat protein [3] [nM]	apparent KD of MS2 coat protein [4] [nM]
GCAUGCUUUUUGCUCGUUUACAUGAGGAUCACCCAUGUACAUGGGUGAGCCGCAUGUACAGAAAGGAAAACUUUUUG [Alacar Attempt 2] (Eterna round: R97, puzzle: Sensor, turn-off variant 1)	21.1	24.7				
CUGCUCCGUGUAGGAUAUGCGUACAACCAAUAUGCAGAAGGACAUGAGGAUCACCCAUGUAUGUUAUUAUCACGUGAAGCGUCC [Design 21] (Eterna round: R96, puzzle: Exclusion NG 1)			16			
UUGGUUGUGGUAGGAUAUCCGUUGGAAACUGUUGGAGAAGGACCACAGUCACUGGGUCUUUGUUUGGUGGAGUGGAAGAACCAU [pwkr exNG1 F6.18] (Eterna round: R96, puzzle: Exclusion NG 1)	166	324	532			
UUUUAACAUGAGGAUCACCCAUGUGAGGAUAUCGAAAUUUAUAUUUAUAUUUAUAAAUCGAGAAGGCACAUUUU [JMF 92] (puzzle: Exclusion 1)				111		
AUGCUCCGUGUAGGAUAUCGCCGCACCACUCGGCGAGAAGGACAUGAGGAUCACCCAUGUAUGUUAUUAUCACGUGUGGCGCGC [Design 43] (Eterna round: R96, puzzle: Exclusion NG 1)	15.1	15.9	13			
UUGGAUAUCUAUGGGAGUAACAUGAGGAUCACCCAUGUAUGUCUUGUUUUUUGUUCGUCAUAGGCCAUUUGAUUGGA [JR_SV3TOV1_Sub025] (puzzle: Sensor v3, turn-off variant 1)				140	78.8	94.6
AAGCACCAUGUGAGGAUAUGCCACGGAACCGAUGGGCAGAAGGCACAUGAGGAUCACCCAUGUGACCGGUGGAU [Eternabot (Original) Solution 48] (Eterna round: R97, puzzle: Brourd's mod of Exclusion 4)	236	44.6				
ACCCUAAUCGUGAGGAUAUACUGCGUCAAAGACGGGUAGAAGGUACAUGAGGAUCACCCAUGUUUGGCUACUAA [Eternabot (L2) Solution 48] (Eterna round: R97, puzzle: Brourd's mod of Exclusion 4)	28.3	27.7				
GAGUGCUGAGGAUAUACAUGAGGAUCACCCAUGUGCUUCAGCUAGGAGACUAGCAUUGGUAGAAGGCAGUACUC [Mod of lroppy - Jieux - Exclusion 3] (Eterna round: R97, puzzle: Exclusion 3)	76.8	12.4				
UAAUUAAAUGUAAGGAUAUGGCAAUGCGGUGGCAGUUAGAAGGUACAUGAGGAUCACCCAUGUGUGUAUCGUGA [Eternabot (L1) Solution 93] (Eterna round: R97, puzzle: Brourd's mod of Exclusion 4)	233	248				
UUUAGUUCAGGAUAUGUAGAAUUUAACAUGAGGAUCACCCAUGUAGAUCCUGAAUUAACUACAGAAGGGAACAUUU [Exclusion 5: 2:a mod2] (Eterna round: R97, puzzle: Exclusion 5)	69.1	15.2				
UUUCAGCUAGGAUAUGCCCUGAUGCACAUGAGGAUCACCCAUGUCGGCUUGUGUAUGAGCGCAGAAGGAGCGAAAA [EX5 C.17] (Eterna round: R97, puzzle: Exclusion 5)	783	268				
ACAUGAGGAUCACCCAUGUCCGGCUGGUCUGGUCCGGCUGUCGAGGAUAUAGUCCGGUGUUCGCGCUAGAAGGCGGGAGCUGGA [Aenatbe mod 50] (Eterna round: R96, puzzle: Exclusion NG 3)	144	85	62.2			
AAGAAACAUGAGGAUCACCCAUGUGAGGAUAUGAGCACGCCGGUGACGGUGAUAAGAAUCAGAAGGCACAAAGG [JL-ex1-4.34 salish99 mod] (Eterna round: R97, puzzle: Exclusion 1)	93	77.8				
UUUUAGUCAGGAUAUACAUGAGGAUCACCCAUGUAAAAUUUUAAUUUAAUUUGAAGGUGUAGAAGGGACAUUUU [Ex3 #40] (Eterna round: R97, puzzle: Exclusion 3)	25.9	27.8				
UUUUAACAUGAGGAUCACCCAUGUGAGGAUAUGGUUUUUUUUUUUUUUUUUUUUUUUUCCAGAAGGCACAUUUU [My solution] (puzzle: Exclusion 1)				13.7	25.4	119
GAAAACGCAGAGGAUAUUUCAGAUCAAAGCUGCAAAGAAGGCUGCACAUGAGGAUCACCCAUGUGGUCUUCAAA [jl-ex6-4.02 ViennaUCT mod] (Eterna round: R97, puzzle: Exclusion 6)	386	20.7				

Sequence	apparent KD of MS2 coat protein (input ligand: FMN 200 uM) [nM]	apparent KD of MS2 coat protein (input ligand: none) [nM]	apparent KD of MS2 coat protein [1] [nM]	apparent KD of MS2 coat protein [2] [nM]	apparent KD of MS2 coat protein [3] [nM]	apparent KD of MS2 coat protein [4] [nM]
AUUUAAUUUAAUAAGAUCACAUGAGGAUCACCCAUGUAUAUAUAGGAUAUCAGCUCGAAUAGAGCUGAGAAGGAUAUAUACAUG [ExNG3/8-A4] (Eterna round: R96, puzzle: Exclusion NG 3)			15.4			
ACUAGGCGAGGAUAUACAUGCUUAACACAGCGAAAGCUGUGACAUGAGGAUCACCCAUGUAGAAGGCGCAAAUA [Enlaedondi] (puzzle: Exclusion 2)				43.2		
CGUCUGUAAGGAUAUGGUAGCAUCAACAUGAGGAUCACCCAUGUUACAUGGGACUAGUGAUUAGAAGGUACGAACG [EX5 #56] (Eterna round: R97, puzzle: Exclusion 5)	58.5	80.6				
GGAAUACAUGAGGAUCACCCAUGUAAGGAUAUGCUGAUUAAUUAAUUAUAAUUAUGCAGCAGAAGGUACAAAGG [Mat - Mod of my Eli Mod D50] (puzzle: Exclusion 1)				87		
GGAGGUGAGGUAAGGAUAUCCUCCUCGAAAGAGGAGGAGAAGGUACAUGAGGAUCACCCAUGUAAGGAAGGAGG [AK-MS2ROC-r4-Bmoexclusion4-11] (Eterna round: R97, puzzle: Brourd's mod of Exclusion 4)	152	54.2				
UGUAGUUCAGGAUAUGAUGUUUAAUACAUGAGGAUCACCCAUGUAGAUCCUGAAUUUACAUCAGAAGGGAAUAUUU [JL-ex5-4.57 Brourd mod] (Eterna round: R97, puzzle: Exclusion 5)	17.3	14.9				
GGUCAGACGGUAGGAUAUCCAUAUCGAGUGACCCUUUCAUAACAUGAGGAUCACCCAUGUCGGUGGGAGAAGGGCCGUACGGCG [salish99_ExNG02_R04_001] (Eterna round: R96, puzzle: Exclusion NG 2)	146	63.2	70.4			
UUACGUUUAGAGGAUAUAUUAAGGAAGGUAACGAUAGAAGGCUAGACAUGAGGAUCACCCAUGUAUAUAGGGAU [JR_Ex6_Sub071] (Eterna round: R97, puzzle: Exclusion 6)	141	54				
GACAGCGGAGGAUAUGCCGUAGAUUACAUGAGGAUCACCCAUGUGGGCUGUAAGUAAUAGGCAGAAGGCUGCCGUU [Eternabot (Original) Solution 33] (Eterna round: R97, puzzle: Exclusion 5)	144	109				
AAAAGUUGGUAAGGAUAUCCCACAUUAUUCUGACCCGUGCAAGCUACAUGAGGAUCACCCAUGUGGGAGAAGGUGCGUUAAAGA [Zatiisor] (Eterna round: R96, puzzle: Exclusion NG 2)	209	78.8	55.1			
GAAAAGGUAGGAUAUACGAAGAAAAAGGGUAGAAAAAAAACACAUGAGGAUCACCCAUGUAGAAGGACCAAAAG [salish99_ex2_r3_028] (puzzle: Exclusion 2)				23.8	54.4	20.2
GGGCCCGGAGGAUAUACAAUUCUGGGCUGAAAGGCUCGGGUACAUGAGGAUCACCCAUGUAGAAGGCCGGGCCC [-37.6, -34.7 kcal A 24%, 7bis-0] (Eterna round: R97, puzzle: Exclusion 2)	33.4	14.9				
UACAAGCUUUAAAGAUCCUACAUGAGGAUCACCCAUGUGCUCGUCUUAUAACGUACUGUGACGAAAGUCACGGUACG [JL TOV1 3.20] (Eterna round: R97, puzzle: Sensor, turn-off variant 1)	200	246				
GUACUGACAGGAUAUACAUGAGGAUCACCCAUGUGCCUUAUCGCUACAAAAGUAGCGAGUAGAAGGGUCUGUAC [Omei Ex3 Model Bachelor's Dilema v18] (Eterna round: R97, puzzle: Exclusion 3)	27.1	16.6				
UUGUACCGGUGAGGAUAUUUUUAAUAGAGCUUUAUGAUAUACAUGAGGAUCACCCAUGUUACGUUGAAGAAGGCAUCGGAUUAU [JL JR Sub091 mod 5] (Eterna round: R96, puzzle: Exclusion NG 2)	19.3	19.8	15.5			
CAUACUGAAGUUAGGAUAUUCGGACGUAUACGGAUGGAGAAGGGACAUGAGGAUCACCCAUGUAGAUAGUAAAG [EX-4 Malc #12] (puzzle: Brourd's mod of Exclusion 4)				23.1	22.7	22.3
CACCUGAACUCAGGAUAUCAUACAUGAGGAUCACCCAUGUAAUAAAUGAGAAUUUCGAAUGUAAUUGAGAAGGGAGAAUAAGGC [Ostricism 98 - Jieux - Exclusion NG 2] (Eterna round: R96, puzzle: Exclusion NG 2)	88.8	38.8	33.8			
